Experimental data published in publication PMC8018910.

Key:
[1] = molecular target: Human IL-18 (human) (UniProt Q14116)
[2] = molecular target: Human IL-18 (human) (UniProt Q14116); conditions: cited from earlier work

Chain of Human IL-18 (human) (Q14116 37-193): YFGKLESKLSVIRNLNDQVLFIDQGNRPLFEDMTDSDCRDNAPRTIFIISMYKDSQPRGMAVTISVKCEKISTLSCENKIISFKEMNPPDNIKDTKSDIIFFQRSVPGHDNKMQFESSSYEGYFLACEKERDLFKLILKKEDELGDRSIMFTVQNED
Chain of Clinical-grade recombinant human IL-18BP (O95998 31-194): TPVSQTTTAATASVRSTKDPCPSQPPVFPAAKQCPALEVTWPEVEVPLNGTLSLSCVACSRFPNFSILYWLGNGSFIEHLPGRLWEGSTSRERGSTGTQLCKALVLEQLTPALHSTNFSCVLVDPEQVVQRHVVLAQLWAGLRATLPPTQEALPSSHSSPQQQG
Chain of IL-18BP (O95998 31-194): as above

reduction of IL-12/IL-18-induced IFNγ production in human PBMC cultures by IL-18BP (24 h) [1] [%]	reduction of IL-12/IL-18-induced IL-6 release in human PBMC cultures by IL-18BP (24 h) [1] [%]	Substance	Kd [2] [nM]
95	85	Clinical-grade recombinant human IL-18BP (from UniProt O95998 31-194) (natural protein)	
		IL-18BP (from UniProt O95998)	0.5
